target: T1, Human NKp30 (BKM0179) (human, UniProt O14931 19-135, limits assumed); assay: SPR (BIAcore T200); human NKp30 BKM0179 captured on a CM5 chip via anti-mouse Fc, antibody construct injected at 3.9-125 nM; 1:1 model
T1 sequence (looked up): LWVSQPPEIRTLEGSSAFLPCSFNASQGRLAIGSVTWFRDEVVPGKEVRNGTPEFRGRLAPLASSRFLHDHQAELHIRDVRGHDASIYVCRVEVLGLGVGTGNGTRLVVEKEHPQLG
Experimental: In this example, a series of exemplary anti-NKp30 antibody molecules were analyzed for their binding affinity for NKp30. Briefly, surface plasmon resonance (SPR) measurements were performed by using the BIAcore T200. Human NKp30 (BKM0179) was immobilized on a CM5 chip via anti-mouse Fc antibody to a response of 50 RU. […] The data was fit using a 1:1 binding model.

| Binder | Kd [nM] |
| --- | --- |
| BKM0138 (antibody, V domains shown, also called BJM0411 VL-N95A) VH: EIQLLESGGGLVQPGGSLRLSCAVSGFSITTTGYHWNWVRQAPGKGLEWVGYIYSSGSTSYNPSLKSRFTISRDTSKNTFYLQMNSLRAEDTAVYYCARGDWHYFDYWGQGTMVTVSS VL: DSVTTQSPLSLPVTLGQPASISCSGEKLSDKYVHWYQQRPGQSPRMLIYENDRRPSGVPDRFSGSNSGNDATLKISRVEAEDVGVYFCQFWDSTASAVFGGGTKVEIK | 3.2 |
| BKM0140 (antibody, V domains shown, also called BJM0407 VL-D92A) VH: EIQLLESGGGLVQPGGSLRLSCAVSGFSITTTGYHWNWVRQAPGKGLEWVGYIYSSGSTSYNPSLKSRFTISRDTSKNTFYLQMNSLRAEDTAVYYCARGDWHYFDYWGQGTMVTVSS VL: SSETTQPPSVSVSPGQTASITCSGEKLSDKYVHWYQQKPGQSPVMVIYENDRRPSGIPERFSGSNSGNTATLTISGTQAMDEADYFCQFWASTNSAVFGGGTQLTVL | 3.3 |
| BKM0143 (antibody, V domains shown, also called BJM0407 VH-N60A) VH: EIQLLESGGGLVQPGGSLRLSCAVSGFSITTTGYHWNWVRQAPGKGLEWVGYIYSSGSTSYAPSLKSRFTISRDTSKNTFYLQMNSLRAEDTAVYYCARGDWHYFDYWGQGTMVTVSS VL: SSETTQPPSVSVSPGQTASITCSGEKLSDKYVHWYQQKPGQSPVMVIYENDRRPSGIPERFSGSNSGNTATLTISGTQAMDEADYFCQFWDSTNSAVFGGGTQLTVL | 1.45 |
| BKM0145 (antibody, V domains shown, also called BJM0407 VH-N60A-VL-D92A-N95A) VH: EIQLLESGGGLVQPGGSLRLSCAVSGFSITTTGYHWNWVRQAPGKGLEWVGYIYSSGSTSYAPSLKSRFTISRDTSKNTFYLQMNSLRAEDTAVYYCARGDWHYFDYWGQGTMVTVSS VL: SSETTQPPSVSVSPGQTASITCSGEKLSDKYVHWYQQKPGQSPVMVIYENDRRPSGIPERFSGSNSGNTATLTISGTQAMDEADYFCQFWASTASAVFGGGTQLTVL | 4.2 |
| BKM0141 (antibody, V domains shown, also called BJM0407 VL-N95A) VH: EIQLLESGGGLVQPGGSLRLSCAVSGFSITTTGYHWNWVRQAPGKGLEWVGYIYSSGSTSYNPSLKSRFTISRDTSKNTFYLQMNSLRAEDTAVYYCARGDWHYFDYWGQGTMVTVSS VL: SSETTQPPSVSVSPGQTASITCSGEKLSDKYVHWYQQKPGQSPVMVIYENDRRPSGIPERFSGSNSGNTATLTISGTQAMDEADYFCQFWDSTASAVFGGGTQLTVL | 3 |
| BKM0144 (antibody, V domains shown, also called BJM0411 VH-N60A-VL-D92A-N95A) VH: EIQLLESGGGLVQPGGSLRLSCAVSGFSITTTGYHWNWVRQAPGKGLEWVGYIYSSGSTSYAPSLKSRFTISRDTSKNTFYLQMNSLRAEDTAVYYCARGDWHYFDYWGQGTMVTVSS VL: DSVTTQSPLSLPVTLGQPASISCSGEKLSDKYVHWYQQRPGQSPRMLIYENDRRPSGVPDRFSGSNSGNDATLKISRVEAEDVGVYFCQFWASTASAVFGGGTKVEIK | 6.4 |
| BKM0139 (antibody, V domains shown, also called BJM0411 VL-D92A) VH: EIQLLESGGGLVQPGGSLRLSCAVSGFSITTTGYHWNWVRQAPGKGLEWVGYIYSSGSTSYNPSLKSRFTISRDTSKNTFYLQMNSLRAEDTAVYYCARGDWHYFDYWGQGTMVTVSS VL: DSVTTQSPLSLPVTLGQPASISCSGEKLSDKYVHWYQQRPGQSPRMLIYENDRRPSGVPDRFSGSNSGNDATLKISRVEAEDVGVYFCQFWASTNSAVFGGGTKVEIK | 3.2 |
| BKM0142 (antibody, V domains shown, also called BJM0411 VH-N60A) VH: EIQLLESGGGLVQPGGSLRLSCAVSGFSITTTGYHWNWVRQAPGKGLEWVGYIYSSGSTSYAPSLKSRFTISRDTSKNTFYLQMNSLRAEDTAVYYCARGDWHYFDYWGQGTMVTVSS VL: DSVTTQSPLSLPVTLGQPASISCSGEKLSDKYVHWYQQRPGQSPRMLIYENDRRPSGVPDRFSGSNSGNDATLKISRVEAEDVGVYFCQFWDSTNSAVFGGGTKVEIK | 1.28 |

From patent US20230333112A1 (MARENGO THERAPEUTICS, published 2023)
